Experimental data published in patent publication US20090028889A1, “Novel Polypeptide Ligands For Toll-Like Receptor 2 (TLR2)” (VAXINNATE CORPORATION, priority 2005, published 2009).

molecular target: T1, TLR2 (Homo sapiens, UniProt O60603); test: not given; settings: cited from earlier work
Target sequence in this assay (O60603 21-784, species assumed): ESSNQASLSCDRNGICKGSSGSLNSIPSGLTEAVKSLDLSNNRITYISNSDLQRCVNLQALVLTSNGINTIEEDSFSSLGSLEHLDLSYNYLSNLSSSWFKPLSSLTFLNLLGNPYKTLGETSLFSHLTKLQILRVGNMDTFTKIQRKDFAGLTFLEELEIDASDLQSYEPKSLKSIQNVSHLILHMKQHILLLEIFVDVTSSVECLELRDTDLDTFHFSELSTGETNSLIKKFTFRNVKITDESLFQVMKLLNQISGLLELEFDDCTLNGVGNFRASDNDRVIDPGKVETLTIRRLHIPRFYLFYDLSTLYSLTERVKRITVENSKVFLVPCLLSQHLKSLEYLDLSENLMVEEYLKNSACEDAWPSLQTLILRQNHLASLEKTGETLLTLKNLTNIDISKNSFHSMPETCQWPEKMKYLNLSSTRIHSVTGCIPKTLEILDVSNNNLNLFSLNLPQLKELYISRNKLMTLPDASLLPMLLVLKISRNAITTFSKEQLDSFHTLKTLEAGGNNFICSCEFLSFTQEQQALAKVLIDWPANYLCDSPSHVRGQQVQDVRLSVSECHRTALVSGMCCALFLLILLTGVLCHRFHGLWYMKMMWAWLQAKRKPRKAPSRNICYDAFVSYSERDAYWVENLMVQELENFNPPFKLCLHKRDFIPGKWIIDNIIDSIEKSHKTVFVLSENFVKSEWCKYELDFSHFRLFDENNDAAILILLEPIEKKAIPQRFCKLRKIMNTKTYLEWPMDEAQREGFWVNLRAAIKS

| Substance | activation of monocytes and epithelial cells via TLR2 signaling |
| --- | --- |
| ALTTE | activate monocytes and epithelial cells via TLR2 signaling |

molecular target: T1, TLR2; test: NF-κB-dependent luciferase reporter assay, parental 293 vs 293.hTLR2 cells; assay type: cell-based; parameters: host or cells: HEK293 (293.luc, stably carrying κB-LUC reporter); settings: 293.hTLR2 vs parental 293 cells, four to five hours at 37° C.
Protocol: NF-κB-dependent luciferase reporter assay: Parental 293 cells and 293.hTLR2 cells (see Example 1, above) were incubated with an aliquot of test peptide four to five hours at 37° C. NF-κB-dependent luciferase activity was measured using the Steady-Glo Luciferase Assay System by Promega (E2510), following the manufacturer's instructions. Luminescence was measured on a microplate luminometer (FARCyte, Amersham) and expressed as relative luminescence units (RLU) after subtracting the background reading obtained by exposing cells to the DMEM medium alone.
The biological activity of the TLR2-binding peptides isolated by the screening method was confirmed using the isolated peptides in an NF-κB-dependent reporter gene assay. For this assay, a synthetic monomer of the DPDSG motif (SEQ ID NO: 5), or a concatemerized copy (DPDSG)5, was incubated on parental HEK293 cells containing an NF-κB-dependent luciferase reporter construct (293) and on TLR2-overexpressing HEK293 cells containing an NF-κB-dependent luciferase reporter construct (293.hTLR2, see Example 1, above). Luciferase activity was then measured. […] Thus, the TLR2-binding peptides identified by the screening assay are functional peptide TLR2 ligands.
Target sequence in this assay (O60603 21-784): as the sequence (O60603 21-784, species assumed) above

| Substance | luciferase reporter gene expression |
| --- | --- |
| (DPDSG)5: concatemerized copy of the DPDSG motif, made by solid phase synthesis (DPDSGDPDSGDPDSGDPDSGDPDSG) | activated luciferase reporter gene expression in a TLR2-dependent manner |
| DPDSG: peptide TLR2 ligand from phage display; also made as synthetic monomer | activated luciferase reporter gene expression in a TLR2-dependent manner |

molecular target: human TLR2 (hTLR2) (human) (UniProt O60603); test: T7 phage display biopanning, 4 rounds, on 293.hTLR2 cells after negative panning on parental HEK293; percent of 109 sequenced clones; settings: not given
Sequence (O60603 21-784 limits assumed): as the sequence (O60603 21-784, species assumed) above

| Substance | % ABUNDANCE [%] |
| --- | --- |
| ACGVY (T7 phage-displayed peptide) | 0.92 |
| ADTHQ (T7 phage-displayed peptide) | 0.9 |
| AGCFS (T7 phage-displayed peptide) | 0.92 |
| AVRLS (T7 phage-displayed peptide) | 0.92 |
| AWAGT (T7 phage-displayed peptide) | 0.9 |
| CGPKL (T7 phage-displayed peptide) | 0.92 |
| CVWLQ (T7 phage-displayed peptide) | 0.9 |
| EVCAP (T7 phage-displayed peptide) | 0.92 |
| FCGLG (T7 phage-displayed peptide) | 0.92 |
| GGKLS (T7 phage-displayed peptide) | 0.92 |
| GPLLH (T7 phage-displayed peptide) | 0.9 |
| HLLPG (T7 phage-displayed peptide) | 0.9 |
| IGRFR (T7 phage-displayed peptide) | 2.7 |
| IHVVP (T7 phage-displayed peptide) | 0.9 |
| IMRHP (T7 phage-displayed peptide) | 0.92 |
| IMWFP (T7 phage-displayed peptide) | 0.9 |
| IYKLA (T7 phage-displayed peptide) | 0.9 |
| KCQSF (T7 phage-displayed peptide) | 0.92 |
| KGWF (T7 phage-displayed peptide) | 0.9 |
| KYMPH (T7 phage-displayed peptide) | 0.9 |

| Substance | % ABUNDANCE [%] |
| --- | --- |
| LRQGR (T7 phage-displayed peptide) | 0.9 |
| MFGVP (T7 phage-displayed peptide) | 0.9 |
| MGTLP (T7 phage-displayed peptide) | 1.8 |
| MISS (T7 phage-displayed peptide) | 0.92 |
| MRRIL (T7 phage-displayed peptide) | 0.92 |
| NPPTT (T7 phage-displayed peptide) | 0.92 |
| NRFGL (T7 phage-displayed peptide) | 0.92 |
| NRTVF (T7 phage-displayed peptide) | 0.92 |
| NYRRW (T7 phage-displayed peptide) | 0.9 |
| PESGV (T7 phage-displayed peptide) | 0.92 |
| RGGF (T7 phage-displayed peptide) | 0.92 |
| RGGSK (T7 phage-displayed peptide) | 3.67 |
| RVVAP (T7 phage-displayed peptide) | 0.9 |
| SGGLF (T7 phage-displayed peptide) | 0.92 |
| SHIAL (T7 phage-displayed peptide) | 0.9 |
| SRHGR (T7 phage-displayed peptide) | 0.92 |
| THKPK (T7 phage-displayed peptide) | 0.9 |
| VGKND (T7 phage-displayed peptide) | 0.9 |
| VSEGV (T7 phage-displayed peptide) | 3.67 |
